# Measured values reported in paper PMC4326527.
# Target: UAF1-mRFP (UniProt Q8TAF3)
# Assay: nuclear relocation assay
# Conditions: 293T cells co-transfected with UAF1-mRFP; at least 100 cells per slide; three independent experiments; parent: est. 10; read off a plot
# Sequence of UniProt Q8TAF3 (Q8TAF3 whole entry): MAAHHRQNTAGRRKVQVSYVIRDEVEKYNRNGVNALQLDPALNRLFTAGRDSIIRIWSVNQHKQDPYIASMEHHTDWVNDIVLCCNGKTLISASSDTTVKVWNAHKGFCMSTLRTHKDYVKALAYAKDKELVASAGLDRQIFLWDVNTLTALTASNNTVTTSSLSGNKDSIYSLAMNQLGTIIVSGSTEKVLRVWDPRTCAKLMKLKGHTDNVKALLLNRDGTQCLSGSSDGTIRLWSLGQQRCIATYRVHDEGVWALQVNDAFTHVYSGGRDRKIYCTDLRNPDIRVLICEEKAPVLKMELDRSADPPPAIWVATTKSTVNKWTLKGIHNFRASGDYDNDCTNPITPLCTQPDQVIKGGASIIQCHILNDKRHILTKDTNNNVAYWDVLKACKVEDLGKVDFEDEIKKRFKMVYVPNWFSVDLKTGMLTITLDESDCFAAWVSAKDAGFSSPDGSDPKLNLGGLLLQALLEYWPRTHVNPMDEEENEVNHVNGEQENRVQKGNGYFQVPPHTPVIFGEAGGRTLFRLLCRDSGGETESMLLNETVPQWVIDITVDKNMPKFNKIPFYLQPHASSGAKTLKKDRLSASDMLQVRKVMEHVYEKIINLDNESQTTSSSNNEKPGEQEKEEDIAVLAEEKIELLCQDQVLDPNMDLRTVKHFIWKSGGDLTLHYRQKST
substance,measurement,value
YFP-USP1(del420-520) S313D,"other: UAF1-mRFP N/C localization (% of cells), nuclear/cytoplasmic (N/C) class",12 % of cells
